In patent publication US20220305006A1, “COMPOSITIONS AND METHODS FOR THE TREATMENT OF NEUROLOGICAL DISEASES AND DISORDERS” (The Regents of the University of California, priority 2019, published 2022) one finds BACE Binding ΔG data, which are given here for two molecules.

This experiment has as its target BACE1 structure PDB ID: 1XN3 after removal of BACE inhibitor 1 (apo model used in silico) (UniProt P56817). The experiment in a line: computed, not measured: MMPBSA (AMBER) on 10000 snapshots of a 50 ns molecular dynamics run.

Chain of BACE1 structure PDB ID: 1XN3 after removal of BACE inhibitor 1 (apo model used in silico) (P56817 58-446 limits assumed): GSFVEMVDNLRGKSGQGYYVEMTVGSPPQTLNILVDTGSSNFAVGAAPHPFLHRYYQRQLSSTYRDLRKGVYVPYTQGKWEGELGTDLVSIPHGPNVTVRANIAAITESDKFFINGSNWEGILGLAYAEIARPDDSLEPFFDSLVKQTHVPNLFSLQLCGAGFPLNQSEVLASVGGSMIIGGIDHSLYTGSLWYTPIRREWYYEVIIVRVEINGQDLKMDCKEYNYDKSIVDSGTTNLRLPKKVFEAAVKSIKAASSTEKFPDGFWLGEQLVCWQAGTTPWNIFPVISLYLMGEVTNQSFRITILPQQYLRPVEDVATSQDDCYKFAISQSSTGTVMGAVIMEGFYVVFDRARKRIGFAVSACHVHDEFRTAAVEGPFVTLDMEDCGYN

Consider Ac-NLTTYPYFIPL-NH2 [Peptide 65005], for which the BACE Binding ΔG is -25.4 kcal/mol.
In the case of Ac-ALYPYFLPISAK-NH2 [Peptide 65007] it was -45.1 kcal/mol.
